Measurements reported in the supplement of paper PMC11865577.

Tests used:
Test in all cases: pull-down binding Z-score (relative to library population); higher = stronger binding
[1] = system: G-clamp-N3 (biotin conjugate); conditions: RNA library: Library-1 (pre-miRNA loops + repeats)
In short: (§1)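 Heat-folded RNA library (1 μg, Cy5 or Cy3 end label, phosphate/NaCl/KCl buffer) was captured for 60 min at 25 °C on streptavidin beads displaying 100 pmol of biotin-conjugated small molecule, then washed three times. The bound fraction, eluted in hot SDS, was hybridised to a DNA barcode microarray at 55.5 °C for 20 h. Z-scores for binding were taken against the library mean and standard deviation after beads-only subtraction and trimmed averaging of replicate barcoded probes.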

[2] = system: TO-3-N3 (biotin conjugate); conditions: RNA library: Library-2
In short: as §1

[3] = system: TO-3-N3-2 (biotin conjugate); conditions: RNA library: Library-2
In short: as §1

TO-N3 (biotin conjugate) = conditions: RNA library: Library-2
In short: as §1

[4] = system: TO-N3-2 (biotin conjugate); conditions: RNA library: Library-2
In short: as §1

Sequence | pull-down binding Z-score [1] | pull-down binding Z-score [2] | pull-down binding Z-score [3] | pull-down binding Z-score (TO-N3 (biotin conjugate)) | pull-down binding Z-score [4]
CCAUCAAGCCCCACCAGAAGGUGGAGGCCCAGGUGAG [hsa-mir-4721] | -1.36 | 0.105 | -0.479 | 0.16 | 0.864
CCAUGCAACAUUUGG [hsa-mir-1302-4] | 0.29 | -0.262 | -0.327 | -0.359 | -0.696
CCAUGCUGUUUAAGCCUAGCAUAG [hsa-mir-4423] | -0.374 | 0.0223 | -0.16 | 0.208 | 0.476
CCAUGGGGGCCUUGCUGUGU [hsa-mir-6808] | 1.56 | 1.05 | 0.335 | 1.28 | 1.04
CCAUGGUGUGCUCUGAUCCCCCUGUGG [hsa-mir-6848] | -0.373 | 0.35 | 0.0413 | 0.592 | 0.49
CCAUGUAAUCUUUGG [hsa-mir-1302-5] | -0.454 | 0.507 | 0.112 | 0.454 | -0.0743
CCAUGUGAGUGAAGCCUGAUCAUCAUGUG [hsa-mir-8070] | -0.0843 | -0.67 | -0.318 | -0.232 | 0.588
CCAUGUGGUUGCGAGGUAUGAGUAAAACAUGG [hsa-mir-218-1] | -0.319 | -0.697 | -0.174 | -0.567 | 0.275
CCAUUAUUGCUACUGUUCAGCAGGUGCUGCUGGUGGUGAUGG [hsa-mir-1260b] | -0.182 | 0.0654 | -0.25 | 0.244 | -0.182
CCAUUAUUUUUAAUAAUUAUAAUAAUGG [hsa-mir-548s] | 0.705 | 0.0929 | -0.237 | -0.233 | -1.2
CCAUUUACUUGAACCUUUAGGAGUGA [hsa-mir-489] | -0.68 | 0.389 | -0.05 | 0.319 | 0.625
CCCAAACUUGGAGCACUUGACCUUUGGC [hsa-mir-4687] | -1.02 | 0.611 | 0.268 | 0.815 | 0.804
CCCAAGCAGGCUUUGUGUGAGCAGUGAGGCUAUUUAUUCACUUGGGUGCGAGCUCACACGAAGCCUGCUUGGG [hsa-mir-6839] | 1.44 | 0.33 | 0.815 | 0.551 | 0.665
CCCACCAUGUACCAGUGGG [hsa-mir-4422] | -1.07 | -0.343 | -0.535 | -0.813 | -0.708
CCCACCCUGAGUUUUGGUGGG [hsa-mir-6508] | -0.873 | -0.066 | -0.26 | -0.245 | -1.22
CCCACCUCCAGCAUUGGG [hsa-mir-1267] | -0.68 | -0.458 | -0.393 | -0.663 | -0.466
CCCACGGCCCUUGUCAGUGUG [hsa-mir-3190] | -1.69 | 0.791 | -0.14 | 0.809 | 0.517
CCCACGUCGCAUGCGCCCCGGGAAAGCGUGGG [hsa-mir-3180-1_3180-3_3180-2] | 1.94 | 0.614 | -0.158 | 0.682 | 0.515
CCCACUCCAAAGUUCACAGAAUGGGUGG [hsa-mir-541] | 0.626 | 2.05 | 0.837 | 1.8 | 1.15
CCCACUUCCUGGA [hsa-mir-4260] | -0.562 | -0.513 | -0.529 | -0.494 | -0.0316
CCCAGAGAAAGCCUGAACGUUGGG [hsa-mir-585] | -0.188 | -0.148 | 0.0232 | 0.119 | 0.386
CCCAGCCUUCCAGAGUUGGUGCCAGG [hsa-mir-4476] | -0.593 | 0.892 | 0.0973 | 1.14 | 1.11
CCCAGCCUUGGCGUUCAGGUGCUGAG [hsa-mir-3150b] | -0.3 | -0.0824 | -0.23 | -0.022 | 0.723
CCCAGCUUUGUGACUGUAAGUGUUGGA [hsa-mir-184] | 0.351 | 0.669 | 0.088 | 0.723 | 0.734
CCCAUAAGGGUCGAAUGGG [hsa-mir-4713] | -0.205 | 0.401 | -0.0623 | 0.272 | 0.0587

Sequence | pull-down binding Z-score [1] | pull-down binding Z-score [2] | pull-down binding Z-score [3] | pull-down binding Z-score (TO-N3 (biotin conjugate)) | pull-down binding Z-score [4]
CCCAUAUAAUAUUAGGGG [hsa-mir-4483] | 2.5 | -0.469 | 0.176 | -0.783 | -0.667
CCCAUAUGAACAUACAAUGCUAUGGA [hsa-mir-1-2] | -0.76 | -0.62 | -0.224 | -0.569 | -0.206
CCCAUAUGGACCUGCUAAGCUAUGGA [hsa-mir-1-1] | -0.475 | -0.0116 | -0.0364 | 0.289 | 0.361
CCCAUAUGGAUUACUUUGCUAUGGA [hsa-mir-206] | -0.287 | 0.0156 | -0.188 | 0.036 | 0.0791
CCCAUUUAAAAUAUGGAA [hsa-mir-548ai] | -2.02 | 0.535 | -0.0892 | 0.322 | -0.0504
CCCCCAAUUAAAGUAGAUUGGGGG [hsa-mir-3153] | 0.917 | -0.415 | -0.696 | -0.725 | -1.29
CCCCGCGCGCGGACAGACACACGGACAAGUCCCGCCAGGGG [hsa-mir-4492] | -0.362 | -0.131 | -0.38 | 1.59 | 4.65
CCCGAGCUGGGCAGCAUGAAGGGCCUCGGG [hsa-mir-486-2] | 3.94 | 1.74 | 0.949 | 1.64 | 1.49
CCCGAGGCCCUUCAUGCUGCCCAGCUCGGG [hsa-mir-486-1] | 0.819 | 0.473 | 0.923 | 0.727 | 1.19
CCCGGAUACCUCAGAAAUUCGG [hsa-mir-760] | -0.822 | -0.07 | -0.461 | -0.0213 | 0.267
CCCGGCCGGCAGCCCCCGGCCUUAAAGCGCGGG [hsa-mir-4741] | 0.653 | -0.112 | 0.194 | 0.228 | 2.16
CCCGUAGGACACCGAGGCUUAUGAAUAGGA [hsa-mir-6081] | -0.941 | -0.16 | 0.141 | 0.345 | 0.62
CCCUAGGACUUACUUGUGCAGGG [hsa-mir-4253] | -0.421 | -0.256 | -0.403 | -0.303 | -0.69
CCCUCAUAUGGCAGUUGGCGAGGGCCCAGUGAG [hsa-mir-6769a] | 2.45 | 0.974 | 0.582 | 1.33 | 1.53
CCCUGCACUCAGUUUGCACAGGG [hsa-mir-4511] | 0.204 | -0.159 | -0.184 | -0.122 | 0.0492
CCCUGCCCAGUGCAGGAG [hsa-mir-6069] | 0.386 | -0.42 | -0.478 | -0.817 | -0.914
CCCUGGGGAGCUGCUGCAGGCAGCAGGUGGGCGGGACGCCAGCAGGCUGUCUAGCUGUUCCCAUGAUGG [hsa-mir-6843] | 2.14 | 0.919 | 0.49 | 1.81 | 2.24
CCCUGGUCAGACUCUCCGGGG [hsa-mir-4675] | -0.63 | -0.139 | -0.287 | -0.368 | -0.561
CCCUUGUCUUCCCAGAG [hsa-mir-4739] | -1.22 | -0.28 | -0.41 | -0.358 | -0.0951
CCGACUCGGGCUCUGGAGCAGUC [hsa-mir-152] | 0.748 | 0.836 | 0.274 | 1.09 | 0.692
CCGACUCUGAGUAUGAUAGAAGUC [hsa-mir-148a] | -1.56 | 0.905 | 0.613 | 1.48 | 2.33
CCGAGUGAUCUCGGU [hsa-mir-8071-1_8071-2] | -1.48 | -0.581 | -0.324 | -0.685 | -0.0845
CCGCCCUCGUGUCUGUGGCGGUGG [hsa-mir-663a] | 0.239 | 0.171 | -0.231 | 0.334 | 0.679
CCGCCUUUGUGCUGUCCUUGGAGGGAGG [hsa-mir-1910] | 1.1 | 0.209 | -0.0292 | 0.226 | 0.495
CCGCUAGUGGAAGAAGAUGGCGG [hsa-mir-6125] | 1.5 | 0.322 | 0.669 | 0.547 | 1.59

Sequence | pull-down binding Z-score [1] | pull-down binding Z-score [2] | pull-down binding Z-score [3] | pull-down binding Z-score (TO-N3 (biotin conjugate)) | pull-down binding Z-score [4]
CCGGCCCGUUAGUUGCCCGGGCCCG [hsa-mir-3181] | -0.29 | -0.57 | -0.397 | -0.422 | 0.914
CCGGGCGCUGCUCUGACCCCUCGU [hsa-mir-187] | 0.00395 | 0.166 | 0.116 | 0.875 | 1.39
CCGGGGCAGGAGACCCCGCG [hsa-mir-1470] | -0.305 | -0.389 | -0.34 | -0.351 | 0.265
CCGGGUGCCCACAAGACUGUG [hsa-mir-3138] | -0.253 | 0.49 | 0.469 | 1.01 | 2.06
CCGUAUAUAUAUAUAUAUAUAUAUAGAUAUCUCCAUAUAUAUGG [hsa-mir-620] | 1.15 | -0.865 | -0.53 | -1.16 | -0.872
CCGUGCCCUGGCCACUCAUUCGG [hsa-mir-6741] | -0.0927 | 0.294 | 0.133 | 0.45 | 1.1
CCGUUUAAAAAGGCAUCUCCAAG [hsa-mir-608] | -1.45 | 0.0622 | 0.433 | 0.0887 | 0.0602
CCUAGAGUCCAUUCUUUACUCUAGG [hsa-mir-4779] | -0.507 | -0.699 | -0.586 | -1.18 | -1.28
CCUAGUGGCUAGCCCUGGGUCUAGCAGCCUAUGGCAGUGUCUGGUAAACACUGGUGGAGUCCUGGG [hsa-mir-6745] | 0.335 | -0.189 | -0.307 | 0.336 | 1.22
CCUCAAUCACUUGCCAGAGAGAUUGG [hsa-mir-1200] | -1.09 | 0.0255 | -0.188 | -0.196 | -0.136
CCUCACCUGCUGAGAG [hsa-mir-3670-3_3670-2_3670-1_3670-4] | 0.409 | -0.258 | -0.133 | -0.143 | 0.19
CCUCCCCCAGUGCCAGG [hsa-mir-3196] | -0.591 | -0.253 | -0.331 | -0.106 | 0.352
CCUCCCUAGGGGAUCCCAGGUAGG [hsa-mir-4688] | -0.606 | 0.295 | -0.168 | 0.0963 | -0.0612
CCUCGAAGCUGCCUUUAGAAAUGAGG [hsa-mir-4496] | -0.107 | -0.0169 | -0.192 | 0.176 | 0.142
CCUCUCGGGAACUACAAGUCCCAGGGGG [hsa-mir-2861] | 0.879 | -0.694 | -0.409 | -0.794 | -0.455
CCUCUGUCCUCUGUCCUCUACCUAUAGAGG [hsa-mir-641] | 0.349 | 0.224 | -0.229 | 0.118 | 0.141
CCUGACAGACAGCCUGAUAGACAGG [hsa-mir-4661] | -0.998 | 2 | 0.168 | 1.96 | 0.908
CCUGAUGAAUCUGAGGCCAGG [hsa-mir-577] | 1.14 | -0.271 | 0.118 | -0.18 | 0.326
CCUGCAGCCCCCAGGUGGGGGG [hsa-mir-4271] | 0.67 | 0.75 | -0.105 | 0.659 | 0.398
CCUGCAGGUGAGAGCGGGAACACCUGCAU [hsa-mir-7112] | 0.953 | -0.176 | 0.104 | 0.311 | 1.03
CCUGCCACGUCAAAGGAGGCAGA [hsa-mir-3154] | 1.11 | -0.302 | -0.38 | -0.164 | 0.137
CCUGCCCAAAUGGUGGAGCAGAUUCGAGGGGCAGG [hsa-mir-4436b-2_4436b-1] | 2.51 | -0.218 | 0.0731 | -0.282 | -0.125
CCUGCCUCAGAACUACUGAACAGAGUCACUGGGUGUGGA [hsa-mir-1289-2] | 0.873 | -0.292 | -0.00545 | 0.181 | 0.785
